No end group written: not given here. *: point of attachment. Biotin = O=C1N[C@H]2[C@H](CS[C@H]2CCCCC(=O)*)N1

The values that follow come from patent publication EP2386565A2 (Cambridge Enterprise Ltd., dated 2000).

Assay [1] deals with T1, Duffy Antigen Receptor for Chemokines (DARC) (human, UniProt Q16570 1-336).
T1 construct: whole, on cells
T1 sequence (looked up): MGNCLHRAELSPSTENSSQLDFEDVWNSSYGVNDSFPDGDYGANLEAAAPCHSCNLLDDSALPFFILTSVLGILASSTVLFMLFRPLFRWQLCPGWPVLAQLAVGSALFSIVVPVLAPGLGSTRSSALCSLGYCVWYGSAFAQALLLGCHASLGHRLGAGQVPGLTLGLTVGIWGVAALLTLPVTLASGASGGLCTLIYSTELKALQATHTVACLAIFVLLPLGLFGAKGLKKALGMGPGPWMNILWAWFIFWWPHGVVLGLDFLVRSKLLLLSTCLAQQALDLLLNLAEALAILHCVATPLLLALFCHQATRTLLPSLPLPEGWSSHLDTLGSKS
Description: estimated ka for binding to red blood cells divided by average inhibitory ED50 in THP-1 migration.

The target of assay [2] is T1, Duffy Antigen Receptor for Chemokines …. Put plainly: ka for binding to red blood cells divided by ka for binding to THP-1 cells.
The target is the same in assay [3]. Put plainly: Table 18, DARC binding; ns = not significantly different from control.
Assay [4] shares this target. Put plainly: Duffy binding; kind of constant not named.
Assay [5] has the same target. Put plainly: competition binding analysis using red blood cells; given as affinity.
For assay [6], the target named is T2, CXCR4 (human, UniProt P61073 1-352).
T2 construct: whole, on cells
Description: biotin-labeled peptide on receptor-expressing cell lines, 125I-streptavidin.

The target of assay [7] is T3, CCR5 (human, UniProt P51681 1-352).
T3 construct: whole, on cells
The description is as above.

Assay [8] has as its target T4, CCR4 (human, UniProt P51679 1-360).
T4 construct: whole, on cells
T4 sequence (looked up): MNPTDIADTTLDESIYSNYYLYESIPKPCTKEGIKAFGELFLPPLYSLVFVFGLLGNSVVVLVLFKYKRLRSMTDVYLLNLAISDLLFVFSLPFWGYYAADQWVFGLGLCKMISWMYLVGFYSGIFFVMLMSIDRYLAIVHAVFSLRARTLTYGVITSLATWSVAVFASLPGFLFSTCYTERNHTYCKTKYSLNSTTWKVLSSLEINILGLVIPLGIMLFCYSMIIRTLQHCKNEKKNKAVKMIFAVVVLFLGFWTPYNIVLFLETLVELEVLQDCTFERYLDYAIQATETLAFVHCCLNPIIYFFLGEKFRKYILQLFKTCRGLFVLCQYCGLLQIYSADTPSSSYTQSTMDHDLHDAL
The assay is described as above.

Assay [9] deals with T5, CXCR2 (human, UniProt P25025 1-360).
T5 construct: whole, on cells
T5 sequence (looked up): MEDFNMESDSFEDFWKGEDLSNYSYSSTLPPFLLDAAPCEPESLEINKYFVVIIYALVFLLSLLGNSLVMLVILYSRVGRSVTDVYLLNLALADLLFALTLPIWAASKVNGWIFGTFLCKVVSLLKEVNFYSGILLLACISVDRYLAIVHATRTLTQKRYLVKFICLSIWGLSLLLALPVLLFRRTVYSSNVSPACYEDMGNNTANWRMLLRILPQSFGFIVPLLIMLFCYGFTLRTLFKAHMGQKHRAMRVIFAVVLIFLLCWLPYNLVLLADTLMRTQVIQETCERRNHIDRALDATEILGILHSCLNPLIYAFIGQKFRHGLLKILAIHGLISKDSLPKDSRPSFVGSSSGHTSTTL
The description is as above.

Assay [10] concerns the target T6, CCR3 (human, UniProt P51677 1-355).
T6 construct: whole, on cells
T6 sequence (looked up): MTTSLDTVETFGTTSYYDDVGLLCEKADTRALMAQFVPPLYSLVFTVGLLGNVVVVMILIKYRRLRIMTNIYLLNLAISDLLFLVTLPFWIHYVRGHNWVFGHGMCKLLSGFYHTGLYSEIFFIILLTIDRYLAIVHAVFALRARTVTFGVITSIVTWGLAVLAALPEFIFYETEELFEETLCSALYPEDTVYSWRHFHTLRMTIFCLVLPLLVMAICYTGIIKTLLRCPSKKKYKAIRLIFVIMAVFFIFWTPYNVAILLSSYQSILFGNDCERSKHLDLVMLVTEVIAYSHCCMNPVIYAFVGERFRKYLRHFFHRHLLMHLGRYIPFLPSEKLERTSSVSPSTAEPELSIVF
The description is as above.

Assay [11] has as its target T7, CCR2 (human, UniProt P41597 1-374).
T7 construct: whole, on cells
Described as above.

Assay [12] deals with T8, CCR1 (human, UniProt P32246 1-355).
T8 construct: whole, on cells
T8 sequence (looked up): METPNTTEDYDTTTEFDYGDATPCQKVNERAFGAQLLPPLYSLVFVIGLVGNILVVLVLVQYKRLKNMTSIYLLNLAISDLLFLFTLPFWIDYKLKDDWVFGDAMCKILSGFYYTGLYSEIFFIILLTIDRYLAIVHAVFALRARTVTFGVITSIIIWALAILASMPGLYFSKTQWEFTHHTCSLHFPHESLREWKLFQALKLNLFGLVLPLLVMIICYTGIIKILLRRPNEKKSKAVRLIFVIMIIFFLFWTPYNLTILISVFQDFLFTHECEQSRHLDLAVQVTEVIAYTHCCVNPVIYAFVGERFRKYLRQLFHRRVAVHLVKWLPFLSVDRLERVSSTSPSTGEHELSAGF
The assay is described as above.

The target of assay [13] is T9, CXCR1 (human, UniProt P25024 1-350).
T9 construct: whole, on cells
T9 sequence (looked up): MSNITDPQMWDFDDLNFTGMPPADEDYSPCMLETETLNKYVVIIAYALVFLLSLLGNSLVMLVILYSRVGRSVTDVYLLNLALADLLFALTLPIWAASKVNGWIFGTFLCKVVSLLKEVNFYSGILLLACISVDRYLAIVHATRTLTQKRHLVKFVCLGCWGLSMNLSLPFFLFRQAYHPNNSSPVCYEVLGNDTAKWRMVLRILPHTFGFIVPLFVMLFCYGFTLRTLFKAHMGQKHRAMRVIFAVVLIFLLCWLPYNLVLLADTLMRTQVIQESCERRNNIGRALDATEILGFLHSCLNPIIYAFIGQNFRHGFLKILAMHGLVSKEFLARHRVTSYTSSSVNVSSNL
Described as above.

Assay [14] has as its target T1, Duffy Antigen Receptor for Chemokines …. Put plainly: DARC binding on red blood cells; printed as Duffy affinity.

T3 sequence (P51681 whole entry): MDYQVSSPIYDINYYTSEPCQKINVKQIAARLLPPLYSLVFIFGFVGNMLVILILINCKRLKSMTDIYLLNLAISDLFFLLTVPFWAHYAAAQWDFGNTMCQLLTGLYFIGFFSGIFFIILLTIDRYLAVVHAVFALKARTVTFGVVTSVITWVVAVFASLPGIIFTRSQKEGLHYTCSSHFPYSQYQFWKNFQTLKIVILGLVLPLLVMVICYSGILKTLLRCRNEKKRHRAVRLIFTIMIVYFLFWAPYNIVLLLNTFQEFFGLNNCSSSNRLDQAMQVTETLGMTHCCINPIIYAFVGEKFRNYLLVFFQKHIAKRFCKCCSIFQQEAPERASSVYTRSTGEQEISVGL
T2 sequence (P61073 whole entry): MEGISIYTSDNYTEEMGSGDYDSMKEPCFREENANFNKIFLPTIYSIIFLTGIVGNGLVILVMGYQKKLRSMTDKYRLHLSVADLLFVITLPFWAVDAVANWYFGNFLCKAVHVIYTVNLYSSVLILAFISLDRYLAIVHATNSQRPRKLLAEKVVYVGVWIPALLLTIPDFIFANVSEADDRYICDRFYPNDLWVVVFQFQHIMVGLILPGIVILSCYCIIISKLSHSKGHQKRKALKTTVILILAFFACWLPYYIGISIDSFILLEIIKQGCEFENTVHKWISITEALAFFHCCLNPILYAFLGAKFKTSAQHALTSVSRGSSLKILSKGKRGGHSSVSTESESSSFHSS
T7 sequence (P41597 whole entry): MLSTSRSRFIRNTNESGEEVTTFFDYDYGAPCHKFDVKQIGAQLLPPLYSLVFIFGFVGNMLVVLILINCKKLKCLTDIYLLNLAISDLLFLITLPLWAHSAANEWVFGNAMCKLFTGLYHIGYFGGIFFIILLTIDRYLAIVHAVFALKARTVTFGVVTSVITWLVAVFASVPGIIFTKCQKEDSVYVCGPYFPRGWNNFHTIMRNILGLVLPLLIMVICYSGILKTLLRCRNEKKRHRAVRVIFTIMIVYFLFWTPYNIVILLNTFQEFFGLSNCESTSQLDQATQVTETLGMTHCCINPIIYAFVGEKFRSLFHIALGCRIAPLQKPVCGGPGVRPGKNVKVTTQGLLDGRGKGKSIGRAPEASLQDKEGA

B1: Leu4Ile11peptide 3(1-12)[MCP-1] (peptide)
peptide: EICLDPKQKWIQ
notes: also called Leu4Ile11pep3; Leu4Ile11peptide 3[MCP-1]
B1: the Duffy selectivity in assay [1] was 37.8 ratio.

B2: Pep2(1-14)[MIP1α] (peptide)
peptide: DYFETSSQCSKPGV
notes: Called peptide 2(1-15)[MIP1α]; also called Pep2[MIP1α]; peptide 2(1-15)[MIP1-α]
For the molecule B2, the Duffy selectivity in assay [2] was > 100 ratio.

Take DYFETSSQC: the binding result in assay [3] is reported as “no binding”.

B3: Peptide 2(1-15)[MCP-1] (peptide)
peptide: SYRRITSSKCPKEAV
notes: also called Pep2[MCP1]; Pep2(1-15)[MCP1]
The molecule B3 displayed a Duffy selectivity in assay [2] of 0.18 ratio. Further, the Kd was 100 µM in assay [4] and < 0.5 µM in assay [5].

Take Biotin-CLDPKQKWIQC (cysteine pairing not given here, also called biotinylated peptide) [N-terminal biotin conjugate of the sequence n'-CLDPKQKWIQC-c']: the Kd in [6], in assay [7], in assay [8], in assay [9], in assay [10] and in assay [11] was > 10 µM in each case. Besides, the dissociation constant (Kd) in assay [12] and in [13] was > 10 µM throughout.

Regarding SYRRITSSK [Peptide 2(1-9)[MCP-1]], the Kd in assay [14] is ~50 µM.

For the molecule CSKPGV, the binding result in [3] is on record as “no binding”.

Regarding ELRVIESGPHCANTEI (also called Pep2[IL8]) [Pep2(1-16)[IL8]], the Duffy selectivity in assay [2] is < 1 ratio.

The Kd is the free concentration of one partner at which half of the binding sites on the other are occupied at equilibrium, for simple one-to-one binding.
